Results from patent publication US8691944 (RESEARCH FOUNDATION FOR THE STATE UNIVERSITY OF NEW YORK, dated 2014).

B1: EGF (ligand, UniProt P01133 971-1023, looked up)
chain: NSDSECPLSHDGYCLHDGVCMYIEALDKYACNCVVGYIGERCQYRDLKWWELR
B2: platelet-derived growth factor-BB (PDGF-BB) (ligand, UniProt P01127 82-190, looked up)
chain: SLGSLTIAEPAMIAECKTRTEVFEISRRLIDRTNANFLVWPPCVEVQRCSGCCNNRNVQCRPTQVQLRPVQVRKIEIVRKKPIFKKATVTLEDHLACKCETVAAARPVT
notes: Two B chains by its name BB
B3: vascular endothelial growth factor A (VEGF-A) (ligand, UniProt P15692-4 27-191, looked up)
chain: APMAEGGGQNHHEVVKFMDVYQRSYCHPIETLVDIFQEYPDEIEYIFKPSCVPLMRCGGCCNDEGLECVPTEESNITMQIMRIKPHQGQHIGEMSFLQHNKCECRPKKDRARQENPCGPCSERRKHLFVQDPQTCKCSCKNTDSRCKARQLELNERTCRCDKPRR
B4: peptide 1 (QPSHISKYILRWRPKNSVGRWKEAT) (peptide)
peptide: QPSHISKYILRWRPKNSVGRWKEAT
notes: Synthetic peptide; also called FN634-658

Key:
FNIII12-14 [1] = target: T1, FNIII12-14 (human, UniProt P02751 1812-2082); experiment: binding assay, method not restated
T1 construct: domain: FNIII12-14; Recombinant domain
T1 sequence (P02751 other isoform, or with tags, fused parts or gaps limits assumed): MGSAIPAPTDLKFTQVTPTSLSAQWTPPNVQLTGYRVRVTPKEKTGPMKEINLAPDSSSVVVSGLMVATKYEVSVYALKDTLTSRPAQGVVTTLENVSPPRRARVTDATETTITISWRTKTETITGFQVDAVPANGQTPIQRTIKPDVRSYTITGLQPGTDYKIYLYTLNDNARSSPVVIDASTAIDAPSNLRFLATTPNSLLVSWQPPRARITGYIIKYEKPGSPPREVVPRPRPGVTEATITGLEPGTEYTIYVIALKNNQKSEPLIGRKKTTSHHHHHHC

[2] = target: T2, FNIII12-15 (H), heparinII-binding domain of fibronectin (human, UniProt P02751-10 1631-1987); experiment: binding assay, method not restated
T2 construct: domain: FNIII12-15; Recombinant domain; also called HepII domain
T2 sequence (P02751 other isoform, or with tags, fused parts or gaps limits assumed): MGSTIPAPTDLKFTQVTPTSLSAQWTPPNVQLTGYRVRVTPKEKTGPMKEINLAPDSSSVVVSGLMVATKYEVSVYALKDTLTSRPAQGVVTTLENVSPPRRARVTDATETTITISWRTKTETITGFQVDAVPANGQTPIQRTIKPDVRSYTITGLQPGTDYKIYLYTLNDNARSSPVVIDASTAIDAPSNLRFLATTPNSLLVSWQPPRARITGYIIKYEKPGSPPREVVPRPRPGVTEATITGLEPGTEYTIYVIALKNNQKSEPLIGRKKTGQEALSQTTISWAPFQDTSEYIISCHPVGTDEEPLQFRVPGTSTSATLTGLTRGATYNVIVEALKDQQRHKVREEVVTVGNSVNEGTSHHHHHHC

FNIII3-6 [3] = target: T3, FNIII3-6 (human, UniProt P02751 810-1172, limits assumed); experiment: binding assay, method not restated
T3 construct: domain: FNIII3-6; Recombinant domain
T3 sequence (P02751 other isoform, or with tags, fused parts or gaps limits assumed): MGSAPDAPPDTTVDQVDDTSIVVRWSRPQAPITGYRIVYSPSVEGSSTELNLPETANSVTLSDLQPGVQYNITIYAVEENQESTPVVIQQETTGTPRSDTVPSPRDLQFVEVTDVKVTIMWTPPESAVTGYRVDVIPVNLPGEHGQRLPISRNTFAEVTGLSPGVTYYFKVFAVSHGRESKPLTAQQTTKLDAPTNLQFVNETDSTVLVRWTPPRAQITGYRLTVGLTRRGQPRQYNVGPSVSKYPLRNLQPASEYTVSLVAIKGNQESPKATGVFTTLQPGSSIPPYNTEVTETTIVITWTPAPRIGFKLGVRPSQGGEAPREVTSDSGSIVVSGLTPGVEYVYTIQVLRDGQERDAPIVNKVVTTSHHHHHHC

[4] = target: T4, FNIII8-11 (C), central cell-binding domain of fibronectin containing RGD (human, UniProt P02751 1357-1721); experiment: binding assay, method not restated
T4 construct: domain: FNIII8-11; Recombinant domain
T4 sequence (P02751 other isoform, or with tags, fused parts or gaps limits assumed): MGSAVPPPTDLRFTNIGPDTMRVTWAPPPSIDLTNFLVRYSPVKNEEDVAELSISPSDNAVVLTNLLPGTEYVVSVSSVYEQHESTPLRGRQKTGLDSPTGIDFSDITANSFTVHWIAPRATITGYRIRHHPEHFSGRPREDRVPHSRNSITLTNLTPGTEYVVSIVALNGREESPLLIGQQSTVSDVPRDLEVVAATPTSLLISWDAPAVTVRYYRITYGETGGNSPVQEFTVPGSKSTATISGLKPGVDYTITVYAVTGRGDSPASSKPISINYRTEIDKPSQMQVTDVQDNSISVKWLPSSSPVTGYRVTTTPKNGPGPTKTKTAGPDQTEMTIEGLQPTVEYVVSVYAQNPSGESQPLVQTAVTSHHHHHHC

FNIII1 = target: T5, FNIII1 (human, UniProt P02751 610-702, limits assumed); experiment: binding assay, method not restated
T5 construct: domain: FNIII1; Recombinant domain; also called first type III repeat of FN

[5] = target: T6, 70 kDa amino terminus of FN (FN70) (UniProt P02751 32-608, limits assumed); experiment: equilibrium and kinetic binding
T6 construct: domain: 70 kDa amino terminus of FN (FN70); also called amino-terminal end of FN
T6 sequence (P02751 32-608 limits assumed): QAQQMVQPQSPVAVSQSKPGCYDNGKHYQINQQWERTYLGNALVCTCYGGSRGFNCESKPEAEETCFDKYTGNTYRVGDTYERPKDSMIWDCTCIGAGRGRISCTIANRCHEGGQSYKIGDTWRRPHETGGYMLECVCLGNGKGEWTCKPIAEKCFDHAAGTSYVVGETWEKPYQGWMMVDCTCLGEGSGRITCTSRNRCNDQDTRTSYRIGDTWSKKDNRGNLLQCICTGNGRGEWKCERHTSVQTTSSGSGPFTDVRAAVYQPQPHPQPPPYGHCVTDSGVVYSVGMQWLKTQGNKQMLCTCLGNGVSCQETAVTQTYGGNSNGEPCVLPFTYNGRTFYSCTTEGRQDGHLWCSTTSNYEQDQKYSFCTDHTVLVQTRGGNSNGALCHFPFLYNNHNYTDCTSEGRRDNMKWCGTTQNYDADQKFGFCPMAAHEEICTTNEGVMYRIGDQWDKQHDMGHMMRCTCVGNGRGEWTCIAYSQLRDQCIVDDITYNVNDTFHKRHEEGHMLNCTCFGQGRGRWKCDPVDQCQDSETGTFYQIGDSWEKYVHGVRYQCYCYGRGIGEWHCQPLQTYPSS

FNIII1-7 [6] = target: T7, FNIII1-7 (UniProt P02751 610-1265, limits assumed); experiment: equilibrium and kinetic binding
T7 construct: domain: FNIII1-7
T7 sequence (P02751 610-1265 limits assumed): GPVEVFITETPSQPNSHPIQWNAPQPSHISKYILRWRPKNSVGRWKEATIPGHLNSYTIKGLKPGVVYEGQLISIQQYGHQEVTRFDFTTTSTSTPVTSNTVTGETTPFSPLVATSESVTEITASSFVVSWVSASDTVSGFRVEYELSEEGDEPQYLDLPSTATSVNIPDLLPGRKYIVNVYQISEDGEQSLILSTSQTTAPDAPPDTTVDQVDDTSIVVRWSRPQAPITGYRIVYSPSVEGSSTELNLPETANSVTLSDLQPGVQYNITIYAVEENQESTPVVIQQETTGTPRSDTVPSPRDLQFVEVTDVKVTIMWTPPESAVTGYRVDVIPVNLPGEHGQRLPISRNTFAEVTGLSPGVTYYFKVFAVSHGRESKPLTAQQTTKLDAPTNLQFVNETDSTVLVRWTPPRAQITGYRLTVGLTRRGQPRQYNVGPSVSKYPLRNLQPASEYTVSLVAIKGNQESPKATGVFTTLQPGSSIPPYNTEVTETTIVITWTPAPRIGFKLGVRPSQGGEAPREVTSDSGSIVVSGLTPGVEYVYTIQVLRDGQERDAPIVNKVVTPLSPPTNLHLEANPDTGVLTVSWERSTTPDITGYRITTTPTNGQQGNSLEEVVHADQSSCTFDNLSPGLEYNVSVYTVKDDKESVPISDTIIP

[7] = target: T8, FNIII12-V15 (HV), composite heparinII-binding and variably-spliced IIICS domains of fibronectin (human, UniProt P02751 1812-2288); experiment: plasmon resonance
T8 construct: domain: FNIII12-V15; Recombinant domain made in E. coli; Some constructs carried GST at the C-terminus
T8 sequence (P02751 other isoform, or with tags, fused parts or gaps limits assumed): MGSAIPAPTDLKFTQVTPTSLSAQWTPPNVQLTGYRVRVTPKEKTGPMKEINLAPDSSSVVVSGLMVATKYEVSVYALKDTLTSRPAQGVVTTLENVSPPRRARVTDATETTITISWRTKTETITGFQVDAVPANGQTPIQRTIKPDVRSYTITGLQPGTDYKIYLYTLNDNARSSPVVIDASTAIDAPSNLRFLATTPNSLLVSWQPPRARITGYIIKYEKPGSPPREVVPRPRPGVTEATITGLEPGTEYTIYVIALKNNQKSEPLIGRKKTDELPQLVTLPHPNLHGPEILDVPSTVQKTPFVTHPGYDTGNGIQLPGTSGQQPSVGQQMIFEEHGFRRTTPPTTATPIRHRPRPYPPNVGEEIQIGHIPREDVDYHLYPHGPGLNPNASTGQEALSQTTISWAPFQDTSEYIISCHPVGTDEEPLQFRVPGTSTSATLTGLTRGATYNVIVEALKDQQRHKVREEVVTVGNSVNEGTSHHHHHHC

intact fibronectin [8] = target: T9, intact fibronectin (UniProt P02751-8 32-2296, limits assumed); experiment: equilibrium binding to FN adsorbed to a surface or coupled to agarose beads
T9 construct: also called FN; intact FN

EGF = target: B1; experiment: binding assay, method not restated
TGF-α = TGF-α (UniProt P01135 40-89); experiment: binding assay, method not restated
Sequence of TGF-α (P01135 40-89 limits assumed): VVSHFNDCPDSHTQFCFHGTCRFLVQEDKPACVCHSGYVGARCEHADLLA

FGF-1 = FGF-1 (UniProt P05230 16-155, limits assumed); experiment: binding assay, method not restated
Sequence of FGF-1 (P05230 16-155 limits assumed): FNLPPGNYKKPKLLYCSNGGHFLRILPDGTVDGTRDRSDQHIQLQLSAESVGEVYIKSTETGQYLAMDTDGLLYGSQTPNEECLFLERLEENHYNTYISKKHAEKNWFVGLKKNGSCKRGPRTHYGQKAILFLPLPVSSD

[9] = target: transforming growth factor-β1 (TGF-β1) (UniProt P01137 279-390); experiment: equilibrium binding
Sequence of transforming growth factor-β1 (TGF-β1) (P01137 279-390 limits assumed): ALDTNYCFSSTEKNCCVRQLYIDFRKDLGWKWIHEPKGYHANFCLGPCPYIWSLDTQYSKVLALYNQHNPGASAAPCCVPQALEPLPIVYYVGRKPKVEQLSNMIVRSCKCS

intact fibronectin [10] = target: T9, intact fibronectin; experiment: radiolabeled GF binding to intact FN, non linear regression
FNIII1-2 [11] = target: T10, FNIII1-2 (human, UniProt P02751 610-809, limits assumed); experiment: surface plasmon resonance
T10 construct: domain: FNIII1-2; Recombinant domain
T10 sequence (P02751 other isoform, or with tags, fused parts or gaps limits assumed): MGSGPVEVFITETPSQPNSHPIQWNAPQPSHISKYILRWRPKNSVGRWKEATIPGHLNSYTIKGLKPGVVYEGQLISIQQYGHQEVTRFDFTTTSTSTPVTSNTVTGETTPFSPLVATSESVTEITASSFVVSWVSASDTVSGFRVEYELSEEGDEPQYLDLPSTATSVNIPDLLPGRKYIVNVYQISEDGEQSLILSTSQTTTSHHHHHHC

[12] = target: T6, 70 kDa amino terminus of FN (FN70); experiment: equilibrium binding, confirmed by surface plasmon resonance
[13] = target: T8, FNIII12-V15 (HV), composite …; experiment: plasmon surface resonance, kinetic binding
FNIII1-7 [14] = target: T7, FNIII1-7; experiment: plasmon surface resonance, kinetic binding
FNIII12-14 [15] = target: T1, FNIII12-14; experiment: binding assay, method not restated (plasmon resonance in the sentence before)
[16] = target: T8, FNIII12-V15 (HV), composite …; experiment: equilibrium binding
FNIII12-14 [17] = target: T1, FNIII12-14; experiment: equilibrium binding
[18] = target: T2, FNIII12-15 (H), heparinII-binding …; experiment: equilibrium binding
FNIII3-6 [19] = target: T3, FNIII3-6; experiment: equilibrium binding
FNIII1-2 [20] = target: T10, FNIII1-2; experiment: equilibrium binding
FNIII12-13 = target: T11, FNIII12-13 (UniProt P02751 1812-1992); experiment: equilibrium binding
T11 construct: domain: FNIII12-13
T11 sequence (P02751 1812-1992 limits assumed): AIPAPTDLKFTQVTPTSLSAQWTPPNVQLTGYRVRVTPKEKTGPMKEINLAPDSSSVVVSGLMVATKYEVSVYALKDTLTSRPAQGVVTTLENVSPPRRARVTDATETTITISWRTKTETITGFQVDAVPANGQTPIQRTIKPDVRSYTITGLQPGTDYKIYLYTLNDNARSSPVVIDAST

FNIII1-7 [21] = target: T7, FNIII1-7; experiment: equilibrium binding
[22] = target: B2; experiment: peptide binding assay
FNIII1-11 = target: T12, FNIII1-11 (human, UniProt P02751-1 610-1630); experiment: binding assay, method not restated
T12 construct: domain: FNIII1-11; Recombinant domain
T12 sequence (P02751 other isoform, or with tags, fused parts or gaps limits assumed): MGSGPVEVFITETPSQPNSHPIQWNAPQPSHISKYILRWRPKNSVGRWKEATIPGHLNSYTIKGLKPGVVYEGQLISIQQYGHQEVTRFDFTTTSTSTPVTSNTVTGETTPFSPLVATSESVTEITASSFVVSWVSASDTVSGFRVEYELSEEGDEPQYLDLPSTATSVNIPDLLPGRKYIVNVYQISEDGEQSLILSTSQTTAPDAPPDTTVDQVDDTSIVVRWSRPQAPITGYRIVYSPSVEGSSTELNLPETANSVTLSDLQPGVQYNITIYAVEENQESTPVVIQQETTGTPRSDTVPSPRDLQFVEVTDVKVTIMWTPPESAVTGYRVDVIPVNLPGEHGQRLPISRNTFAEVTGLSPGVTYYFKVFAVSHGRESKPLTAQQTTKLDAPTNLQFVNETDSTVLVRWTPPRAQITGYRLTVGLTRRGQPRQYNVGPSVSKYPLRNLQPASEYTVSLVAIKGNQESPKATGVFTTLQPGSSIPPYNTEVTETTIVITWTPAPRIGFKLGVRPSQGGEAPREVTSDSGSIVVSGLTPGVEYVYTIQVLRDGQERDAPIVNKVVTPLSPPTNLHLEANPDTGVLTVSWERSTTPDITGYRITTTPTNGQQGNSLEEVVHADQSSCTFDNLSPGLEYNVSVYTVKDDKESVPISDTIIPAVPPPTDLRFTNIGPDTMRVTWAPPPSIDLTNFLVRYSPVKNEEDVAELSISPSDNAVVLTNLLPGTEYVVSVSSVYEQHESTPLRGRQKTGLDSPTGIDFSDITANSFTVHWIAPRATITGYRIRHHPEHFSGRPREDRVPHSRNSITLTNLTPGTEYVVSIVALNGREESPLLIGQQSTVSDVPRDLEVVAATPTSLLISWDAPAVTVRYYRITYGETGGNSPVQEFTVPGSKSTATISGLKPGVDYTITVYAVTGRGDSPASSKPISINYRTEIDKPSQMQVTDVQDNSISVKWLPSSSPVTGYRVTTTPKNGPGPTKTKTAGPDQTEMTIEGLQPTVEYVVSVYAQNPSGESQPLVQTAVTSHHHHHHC

[23] = target: T6, 70 kDa amino terminus of FN (FN70); experiment: binding assay, method not restated
[24] = target: B2; experiment: equilibrium binding
[25] = target: B2; experiment: binding assay, method not restated

B1: no binding (FNIII12-14 [1]); no binding [2]; no binding (FNIII3-6 [3]). B1: no binding [4]; no binding (FNIII1); no binding [5]. B1: no binding (FNIII1-7 [6]); no binding [7]; no binding (intact fibronectin [8]).

NGQTPIQRTIKPDVRSYTITGLQPGT (Synthetic peptide) [peptide 3 (NGQTPIQRTIKPDVRSYTITGLQPGT)]: no binding (EGF); no binding (TGF-α); no binding (FGF-1). It also gave a Kd [9] of 140 nM.

For B2, the Kd (intact fibronectin [10]) was 49 nM, the binding result [4] was “no binding” and the Kd (FNIII1-2 [11]) was 9.1 nM. For the same binder, the binding result [12] was “no binding”, the Kd [13] was 17 nM and the Kd (FNIII1-7 [14]) was 100 nM. For the same binder, the Kd (FNIII12-14 [15]) was 55 nM, the Kd [16] was 21 nM and the Kd (FNIII12-14 [17]) was 35 nM. For the same binder, the Kd [18] was 6.8 nM, the binding result (FNIII3-6 [19]) was “no binding” and the Kd (FNIII1-2 [20]) was 37 nM. It also gave a Kd (FNIII12-13) of 75 nM and a Kd (FNIII1-7 [21]) of 75 nM.

For ILRWRPKNSVGRWK, the Kd [9] was 400 nM.

QPSHISKY [FN634-641 (QPSHISKY)]: no binding [22].

With WNAPQPSHISKYILRWRPK [FN630-648 (WNAPQPSHISKYILRWRPK)] the Kd [22] was 340 nM.

B3: no binding (FNIII1-11); no binding [4]; no binding [23]. For the same binder, the Kd [7] was 0.6 nM.

YILRWRPKNSVGRW [FN641-654 (YILRWRPKNSVGRW)]: no binding [22].

B4: no binding (EGF); no binding (TGF-α); no binding (FGF-1). It also gave a Kd [24] of 250 nM and a Kd [9] of 130 nM.

KNSVGRWKEATIPGHLNSYT [FN648-667 (KNSVGRWKEATIPGHLNSYT)]: no binding [22].

QLISIQQYGHQEVTRFDFTTTSTST (Synthetic peptide) [peptide 2 (QLISIQQYGHQEVTRFDFTTTSTST)] was tested, and the Kd [25] was 110 nM, the binding result (EGF) was “no binding” and the binding result (TGF-α) was “no binding”. For the same binder, the binding result (FGF-1) was “no binding” and the Kd [9] was 270 nM.

QPSVGQQMIFEEHGFRRTTPPTTAT (Synthetic peptide) [peptide 4 (QPSVGQQMIFEEHGFRRTTPPTTAT)]: no binding (EGF); no binding (TGF-α); no binding (FGF-1). It also gave a Kd [9] of 100 nM.

With QPSHISKYILRWRPK [FN634-648 (QPSHISKYILRWRPK)] the Kd [9] was 440 nM and the Kd [22] was 450 nM.
